{
  "source": "FireProtDB (doi:10.1110/ps.041111405)",
  "parents": {"B1": {"name": "Gamma-crystallin D, P07320 (parent)", "chain": "MGKITLYEDRGFQGRHYECSSDHPNLQPYLSRCNSARVDSGCWMLYEQPNYSGLQYFLRRGDYADHQQWMGLSDSVRSCRLIPHSGSHRIRLYEREDYRGQMIEFTEDCSCLQDRFRFNEIHSLNVLEGSWVLYELSNYRGRQYLLMPGDYRRYQDWGATNARVGSLRRVIDFS"}},
  "variants_of": "B1",
  "settings": "Homo sapiens; pH 7; 37 °C; GdnHCl; Fluorescence; Sodium phosphate 10 mM; transition: 3; structure 1HK0; whole UniProt chain shown",
  "note": "Several values for one entry are separate records, joined by “and”; a condition that tells them apart may be missing. Equal values may be shown once.",
  "data": [
    {"variant": "I82A", "values": [
      {"measurement": "denaturant m value", "value": "3.7 kcal/mol/M and 3 kcal/mol/M"},
      {"measurement": "denaturant midpoint (higher = more stable)", "value": "1.5 M and 2.9 M"},
      {"measurement": "unfolding free energy", "value": "5.3 kcal/mol and 8.7 kcal/mol"}
    ]},
    {"variant": "M44A", "values": [
      {"measurement": "denaturant m value", "value": "3.7 kcal/mol/M and 2.8 kcal/mol/M"},
      {"measurement": "denaturant midpoint (higher = more stable)", "value": "2.2 M and 2.9 M"},
      {"measurement": "unfolding free energy", "value": "7.7 kcal/mol and 8.1 kcal/mol"}
    ]},
    {"variant": "L145A", "values": [
      {"measurement": "ddG of mutation (higher = less stable)", "value": "1.2 kcal/mol and 1.4 kcal/mol"},
      {"measurement": "denaturant m value", "value": "3.9 kcal/mol/M and 2.9 kcal/mol/M"},
      {"measurement": "denaturant midpoint (higher = more stable)", "value": "1.6 M and 2.6 M"},
      {"measurement": "unfolding free energy", "value": "6.5 kcal/mol and 7.5 kcal/mol"}
    ]},
    {"variant": "F57A", "values": [
      {"measurement": "denaturant m value", "value": "3.9 kcal/mol/M and 3.2 kcal/mol/M"},
      {"measurement": "denaturant midpoint (higher = more stable)", "value": "1.6 M and 2.9 M"},
      {"measurement": "unfolding free energy", "value": "6.1 kcal/mol and 9.3 kcal/mol"}
    ]},
    {"variant": "V170A", "values": [
      {"measurement": "ddG of mutation (higher = less stable)", "value": -1.3, "unit": "kcal/mol"},
      {"measurement": "denaturant m value", "value": 4, "unit": "kcal/mol/M"},
      {"measurement": "denaturant midpoint (higher = more stable)", "value": 2.5, "unit": "M"},
      {"measurement": "unfolding free energy", "value": 10.2, "unit": "kcal/mol"}
    ]},
    {"variant": "V132A", "values": [
      {"measurement": "ddG of mutation (higher = less stable)", "value": "2.7 kcal/mol and 1.1 kcal/mol"},
      {"measurement": "denaturant m value", "value": "3.7 kcal/mol/M and 3.1 kcal/mol/M"},
      {"measurement": "denaturant midpoint (higher = more stable)", "value": "1.3 M and 2.5 M"},
      {"measurement": "unfolding free energy", "value": "5 kcal/mol and 7.8 kcal/mol"}
    ]}
  ]
}
